Reference: patent US20250236667A1, “ANTIBODIES TO MUTANT CALRETICULIN AND USES THEREOF” (CENTRAL ADELAIDE LOCAL HEALTH NETWORK INC, priority 2021, published 2025)

Columns and labels:
[1] = tested on: primary CD34+ cells from patients with CALR mutant myelofibrosis; assay: TPO-independent megakaryocyte differentiation in liquid culture; assay type: cell-based, human
Excerpt: (§1) Patient samples were collected with informed consent from the South Australian Cancer Research Biobank (SACRB: Adelaide, Australia). Primary CD34+ stem/progenitor cells from peripheral blood samples from patients with JAK2^V617F or CALR mutant myelofibrosis were purified by flow cytometry using CD34-APC antibody, anti-human CD45RA Brilliant Violet 605, anti-CD90 FITC, anti-human CD123-PE, anti-human CD38 PE-Cy7, or with CD34-APC antibody, anti-human CD3 FITC, anti-human CD19-PE (clone H1B19) and anti-human CD14 PE-Cy7.
(§2) For megakaryocyte differentiation assays, CD34+ cells derived from cord blood or from patient peripheral blood mononuclear fractions were plated in Megacult (MegaCult™-C Collagen and Medium with Lipids) with added IL-3 and IL-6 (10 ng/ml) in the presence or absence of 50 ng/mL TPO. Cells were plated at an initial density of 1800 cells/well and cultured for 12 days at 37° C. and 5% CO2. Primary PMF CD34+ cells were cultured in StemCell Pro supplemented with human recombinant SCF (25 ng/mL), IL-6 and IL-9 (10 ng/ml) to allow differentiation into megakaryocytes. CD34+cord blood cells were cultured in 50 ng/mL SCF, 50 ng/ml TPO, 20 ng/ml IL-6 and 20 ng/ml IL-9. Both IgG and 4D7 were added at 20 μg/mL. All cytokines are from Preprotech. Culture media was replenished every 3 days and cells were assessed for megakaryocyte differentiation on day 12 using anti-human CD41/61 PE-Cy7 (Clone A2A9/6) and CountBright beads (Thermo Fisher) to enumerate cell numbers. CD34+obtained from UCB were plated in MethoCult containing cytokines (H4434). Cells were seeded at approximately 100 cells per well and were cultured in the presence of 20 μg/mL 4D7 or control IgG antibody and scored for colony and blast forming units at 12-14 days.

[2] = tested on: primary CD34+ cells from JAK2 V617F myelofibrosis samples; assay: as above; assay type: cell-based, human; conditions: 3 out of 3 JAK2 V617F myelofibrosis samples
Excerpt: as §1, §2

[3] = tested on: TF-1 TpoR CALR^del61 cells in NSG mice; assay: Chloroma xenograft model (subcutaneous injection); assay type: in vivo
Procedure: All procedures were approved by the South Australian Health and Medical Research Animal Ethics Committee (Protocol SAM21-018). Bone marrow engraftment model: 4-6 week old NSG mice were x-ray irradiated with 150 cGy and 5×10^5 cells (TF-1-TpoR CALR^del61) or 5×10^4 cells (100 nM ruxolitinib resistant TF-1 TpoR CALR^del61) were intravenously injected into mice. […] Tail vein bleeds were taken at 3 weeks and analysed via flow cytometry to determine human leukaemia content in the peripheral blood. Leukemic cells were PI-, mCD45.1, hCD33+, zsGreen+. Mice were monitored daily and euthanized once clinical symptoms were observed. At the time of euthanasia, cardiac puncture was performed to obtain both peripheral blood and serum for analysis. Additionally, bone marrow from both femurs, spine and spleens were analysed for leukemic content as detailed above. Chloroma model: 4-6 week old NSG mice were anaesthetised by isoflurane inhalation and shaved on the left back/flank and 1×10^7 cells were injected into the mice. Cells were pre-treated with 20 μg/mL IgG or 4D7 for 1 hour prior to injection. […] Tumour progression was assessed through caliper measurements every 2 days. Mice were euthanised once tumours began to impede movement, show signs of ulceration or if any measurement of the tumour exceeded 30 mm (length, width or depth).

B1: 4D7: rat monoclonal IgG2a antibody against the mutant CALR neoepitope; VH SEQ ID NO: 5, VL SEQ ID NO: 7 (antibody, listed as Rattus rattus, V domains shown)
VH: QVQLQQSGAELAKPGSSVKISCKASGYTFTNYDMSWIKQRPGQALEWIGAINPGNGVTDYNEKFRGKATLTVDKSSSTAFMQLSSLTPEDTAVYHCAREYRDNYGYFDYWGQGVMVTVSS
VL: DIVLTQTPVSLSVTLGDQASISCRSSQSLEYSDGYTYLDWFLQKPGQSPQLLIYEVSSRFSGVPDRFIGRGSGTDFTLKISRVEPEDLGVYYCFQATHDPFTFGSGTKLEIK
- mean decrease of CD41+ cells across CALR mutant samples ([1]; 20 μg/mL, day 12, normalised to IgG): 55%
- inhibition of CD41+ megakaryocytes compared to IgG control ([1]; additional samples in 2 independent patients (Graz), including type 2 CALR (5 base pair insertion)): evidence of inhibition
- inhibition of TPO-independent growth of CD41+CD61+ megakaryocyte progenitors ([1]; four out of 5 mutant CALR MF patient samples, 20 μg/mL, 12 days, vs IgG): at least 50%
- inhibition of CD41+CD61+ megakaryocyte progenitors ([1]; patient sample with a 34 base pair deletion): weaker inhibition
- inhibition of CD41+CD61+ megakaryocyte progenitors [2]: No significant inhibition
- survival, hazard ratio ([3]; 4D7 vs IgG, P=0.02): 0.19
- mean tumour volume ([3]; 21 days post-engraftment, 12.5 mg/kg twice weekly, P=0.04): 353 mm^3
